Measurements published in patent US20180118802A1 (published 2018).
Like-named read-outs stand apart in the source and are kept apart here.

B1: RAP d3 (ligand, not shown: small tags and cut ends)
chain: LDRLRRVSHQGYSTEAEFEEPRVIDLWDLAQSANLTDKELEAFREELKHFEAKIEKHNHYQKQLEIAHEKLRHAESVGDGERVSRSREKHALLEGRTKELGYTVKKHLQDLSGRISRAR
notes: also called wild-type RAP d3

What was measured:
[1] = molecular target: T1, LRP2 CR89 Y1042W V1047D R1088D (human, UniProt P98164 1022-1105); test: solid-phase binding assay, CR protein coated, anti-RAP detection
T1 construct: also called WDWD
T1 sequence: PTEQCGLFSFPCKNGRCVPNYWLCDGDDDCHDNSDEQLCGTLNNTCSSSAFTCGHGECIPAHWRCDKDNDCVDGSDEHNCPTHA
Method: (§1) Solid phase binding assays—Purified, refolded CR protein (1 μg) was bound to Nunc Maxisorp™ 96-well plates in TBS pH 8 supplemented with 5 mM CaCl₂ (TBSC) overnight at 4° C. Wells were washed with TBSC and then blocked with TBSC containing 2% bovine serum albumin (BSA). RAP ligands were then incubated with the immobilized receptor at a range of concentrations for 2 hours in the above blocking buffer supplemented with 0.05% Tween-20 at room temperature. Control wells contained no added ligand. As an additional control, to determine whether the absence of calcium affected binding, 10 mM EGTA was included in the incubation medium for some samples. Wells were washed with TBSTC and bound ligands detected with polyclonal anti-RAP (BP41/42, 1:1,000, BioMarin). Excess primary antibody was removed and wells washed before incubation with the secondary antibody, HRP-conjugated goat anti rabbit IgG (Bio-Rad). After washing, TMB substrate solutions (Bio-Rad) were added to detect HRP. Color development was stopped with 1N HCl. Absorption at 450 nm was measured with a microplate spectrophotometer (Molecular Devices). Data were plotted and Kd values derived by non-linear regression with the assumption of single-site binding (GraphPad Prism).
(§2) One premise of this work was that amino acids at A, C, A′ and C′ within the calcium-binding loops of a CR pair were key determinants of binding affinity for RAP and would be similarly important for binding of RAP variants. To test this idea, mutant LRP2 CR89 were prepared in which the native, non-canonical residues at these positions were sequentially substituted with the non-native, canonical residues. As defined above, the A, C, A′, C′ string for LRP2 CR89 is YVWR. Mutants included LRP2 CR89 Y1042W (WVWR), LRP2 CR89 V1047D (YDWR), LRP2 CR89 R1088D (YVWD), LRP2 CR89 V1047D R1088D (YDWD), LRP2 CR89 Y1042W V1047D R1088D (WDWD), LRP2 CR89 Y1042W V1047D (WDWR), LRP2 CR89 Y1042W R1088D (WVWD). Binding to both RAP d3 and MegaRAP1 d3 were measured for each LRP2 CR89 mutant by solid-phase assay.

[2] = molecular target: T2, LRP2 CR89 V1047D (human, UniProt P98164 1022-1105); test: as above
T2 construct: also called YDWR
T2 sequence: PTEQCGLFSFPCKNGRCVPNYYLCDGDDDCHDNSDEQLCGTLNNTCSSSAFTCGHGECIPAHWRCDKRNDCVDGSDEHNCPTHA
Method: as §1, §2

[3] = molecular target: T3, LRP2 CR89 R1088D (human, UniProt P98164 1022-1105); test: as above
T3 construct: also called YVWD
Method: as §1, §2

[4] = molecular target: T4, LRP2 CR89 (human, UniProt P98164 1025-1102); test: as above
T4 construct: domain: CR89; also called YVWR; not shown: N-terminal hexahistidine and S-peptide of pET30(+)a
T4 sequence (P98164 1025-1102): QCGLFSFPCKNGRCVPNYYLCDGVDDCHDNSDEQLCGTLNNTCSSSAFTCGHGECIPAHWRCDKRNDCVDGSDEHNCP
Method: as §1, §2

[5] = molecular target: T5, LRP2 CR89 Y1042W R1088D (human, UniProt P98164 1022-1105); test: as above
T5 construct: also called WVWD
T5 sequence: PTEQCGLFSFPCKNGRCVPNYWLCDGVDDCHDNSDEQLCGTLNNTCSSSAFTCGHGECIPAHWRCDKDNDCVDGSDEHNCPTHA
Method: as §1, §2

[6] = molecular target: T6, LRP2 CR89 Y1042W (human, UniProt P98164 1022-1105); test: as above
T6 construct: also called WVWR
T6 sequence: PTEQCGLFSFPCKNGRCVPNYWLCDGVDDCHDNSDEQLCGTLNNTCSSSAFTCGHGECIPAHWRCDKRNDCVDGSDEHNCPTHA
Method: as §1, §2

[7] = molecular target: T7, LRP2 CR89 V1047D R1088D (human, UniProt P98164 1022-1105); test: as above
T7 construct: also called YDWD
T7 sequence: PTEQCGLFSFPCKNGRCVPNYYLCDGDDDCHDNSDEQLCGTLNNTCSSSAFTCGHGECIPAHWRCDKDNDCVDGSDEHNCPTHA
Method: as §1, §2

[8] = molecular target: T4, LRP2 CR89; test: as above; remark: listed apart in the source
Method: (§3) Wells were washed with TBSTC and bound ligands detected with polyclonal anti-RAP (BP41/42, 1:1,000, BioMarin). Excess primary antibody was removed and wells washed before incubation with the secondary antibody, HRP-conjugated goat anti rabbit IgG (Bio-Rad). After washing, TMB substrate solutions (Bio-Rad) were added to detect HRP. Color development was stopped with 1N HCl. Absorption at 450 nm was measured with a microplate spectrophotometer (Molecular Devices). Data were plotted and Kd values derived by non-linear regression with the assumption of single-site binding (GraphPad Prism).
(§4) Next, the binding of RAP d3 and MegaRAP1 d3 proteins to LRP1 CR3-5 and LRP2 CR89 was assessed. […] In all cases, 10 mM EGTA prevented binding of both RAP d3 and MegaRAP1 d3 to CR proteins. Since calcium was the only divalent metal ion present in the binding buffer, this observation is consistent with both RAP d3 and MegaRAP1 d3 binding to calcium-loaded CR pairs. […] Therefore, wild-type RAP d3 and MegaRAP1 d3 have inverted binding preferences for these two receptor fragments.

[9] = molecular target: T8, LRP1 CR3-5 (human, UniProt Q07954 852-973); test: as above
T8 construct: range 852-973; not shown: N-terminal hexahistidine and S-peptide of pET30(+)a
T8 sequence (Q07954 852-973, form in doubt): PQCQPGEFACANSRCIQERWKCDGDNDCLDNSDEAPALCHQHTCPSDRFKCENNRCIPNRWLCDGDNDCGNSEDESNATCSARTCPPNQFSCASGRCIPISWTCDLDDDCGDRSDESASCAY
Method: as §3, §4

[10] = molecular target: T9, VLDLR CR6-8 (human, UniProt P98155 235-358); test: as above
T9 construct: range 235-358; not shown: N-terminal hexahistidine and S-peptide of pET30(+)a
Text: (§5) Alternatively, the affinity differences between MegaRAP I d3 and MegaRAP1 d3 E270K may have been insufficient to alloW the latter to predominate upon iterative panning. A double revertant, T213S, E270K, had binding behavior that was not distinguishable from MegaRAP1 d3 in our assays. […] The binding behavior of the K251E, E270K double revertant implies a strong dependence of the affinity of MegaRAP1 d3 for LRP2 CR89 on the E251K mutation. […] Therefore, the K256A mutation in MegaRAP1 d3 is a crucial determinant of the ability of this variant to discriminate between the two receptor fragments, exerting its effect by negatively impacting affinity for LRP1 CR3-5 while at the same time improving affinity for LRP2 CR89.

[11] = molecular target: T8, LRP1 CR3-5; test: as above; remark: listed apart in the source
Text: as §5

[12] = molecular target: T8, LRP1 CR3-5; test: as above; remark: listed apart in the source
Method: as §1

[13] = molecular target: T10, LRP2 CR89 Y1042W V1047D (human, UniProt P98164 1022-1105); test: as above
T10 construct: also called WDWR
T10 sequence: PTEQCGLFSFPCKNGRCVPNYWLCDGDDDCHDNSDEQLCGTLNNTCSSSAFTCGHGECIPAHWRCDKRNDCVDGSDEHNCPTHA
Method: as §1, §2

[14] = molecular target: B1; test: solid-phase binding assay, ligand at 80 nM, CR protein coated (FIG. 7)
Method: as §1
The apparent dissociation constant for binding of VRAP1 d3 to VLDLR CR78 was determined to be 44±9 nM. […]

Row | % max bind [1] | % max bind [2] | % max bind [3] | % max bind [4] | % max bind [5] | % max bind [6] | % max bind [7] | % max [8] | % max [9] | Kd [9] | Kd [10] | Kd [11] | Kd [12] | binding result [1] | binding result [2] | binding result [13] | binding result [5] | binding result [6] | binding result [7] | binding result [14] | Binder
1 | 15% | 6% | 7% | 7% | 16% | 9% | 6% | 5% | 76% | 16 nM | > 300 nM | 11 nM | 16 nM |  |  |  |  |  |  |  | B1
2 |  |  |  |  |  | 5% |  |  |  |  |  |  |  | no binding | no binding | no binding | no binding | no binding | no binding |  | MegaRAP1 d3 (ligand, not shown: small tags and cut ends, also called RAPv2A d3; RAP v2) LDRLRRVSHQGYTTEAKFEEPRVIDLWDLAQSANLTDKELEAFREELKYFKAKIEAHNHYQKQLEIAHEELRHAESVGDGERVSRSREKHALLEGRTKELGYTVKKHLQDLSGRISRAR
3 |  |  |  |  |  |  |  |  |  |  |  |  |  |  |  |  |  |  |  | no binding (tested: 80 nM) | MAT CR12 (other, also called ST14 CR12; not shown: N-terminal hexahistidine/S-peptide tag of pET30(+)a) PCPGQFTCRTGRCIRKELRCDGWADCTDHSDELNCSCDAGHQFTCKNKFCKPLFWVCDSVNDCGDNSDEQGCS
